Earlier results as cited in article PMC4372107.
“And” between values parts separate entries of the source, which are not always exact repeats. Equal entries are not always repeated.

Molecular target: U2AF65 RRM123 (Homo sapiens) (UniProt P26368)
Experiment: ITC

Chain of UniProt P26368 (P26368 148-475, one chain of several): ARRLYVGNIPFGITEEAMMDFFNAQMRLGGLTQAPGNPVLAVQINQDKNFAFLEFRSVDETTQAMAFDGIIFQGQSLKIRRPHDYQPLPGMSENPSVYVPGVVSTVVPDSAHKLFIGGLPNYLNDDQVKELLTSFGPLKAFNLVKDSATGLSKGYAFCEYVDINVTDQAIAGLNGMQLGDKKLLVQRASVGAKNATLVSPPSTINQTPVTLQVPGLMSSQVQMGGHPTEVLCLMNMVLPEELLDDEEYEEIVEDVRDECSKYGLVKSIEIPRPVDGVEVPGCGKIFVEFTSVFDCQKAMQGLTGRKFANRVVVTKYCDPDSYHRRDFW

Kd: 114 nM and 96 nM
Substance: SF1 (from UniProt Q15637)
